Data: publication PMC8488193, “Characterization of a Novel Glutamine Synthetase From Trichinella spiralis and Its Participation in Larval Acid Resistance, Molting, and Development” (Frontiers in Cell and Developmental Biology, 2021)

What was measured:
rTsGS = target: T1, rTsGS (Trichinella spiralis, UniProt A0ABR3KY69); assay: phosphate release, absorbance at […] nm, with inhibitor; type: biochemical; conditions: substrates Glu, ATP, NH4+
T1 construct: gene TSPI_06310
T1 sequence (A0ABR3KY69 1-365): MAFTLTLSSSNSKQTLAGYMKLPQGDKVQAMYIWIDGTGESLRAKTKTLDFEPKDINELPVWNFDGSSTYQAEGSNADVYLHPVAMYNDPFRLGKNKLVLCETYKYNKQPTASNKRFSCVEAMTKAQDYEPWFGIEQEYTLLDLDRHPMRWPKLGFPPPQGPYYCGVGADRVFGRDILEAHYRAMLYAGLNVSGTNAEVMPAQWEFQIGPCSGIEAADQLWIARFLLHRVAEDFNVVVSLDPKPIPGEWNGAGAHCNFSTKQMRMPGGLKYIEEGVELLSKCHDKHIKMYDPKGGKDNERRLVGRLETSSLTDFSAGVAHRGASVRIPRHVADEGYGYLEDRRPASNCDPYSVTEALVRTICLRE

N = assay: purified protein; conditions: pH 7.0, 45 °C, 100 mM Mg2+, glutamate and ATP as co-substrates, range 0.5-5 mM
N[C@@H](CCC(=O)O)C(=O)O = assay: purified protein; type: biochemical, Trichinella spiralis; conditions: pH 7.0, 45 °C, 100 mM Mg2+, ATP and NH4+ as co-substrates, range 0.5-5 mM

Row | Compound | inhibition at 10% glufosinate (rTsGS) | Km (N) [µM] | Km (N[C@@H](CCC(=O)O)C(=O)O) [µM]
1 | CP(=O)(O)CCC(N)C(=O)O (stereo not drawn) [glufosinate] | Both EDTA and glufosinate could inhibit the rTsGS enzyme activity | – | –
2 | rTsGS (Trichinella spiralis) | – | 170 | 200
